Laboratory results from PMC11423328, “Catalytic Redundancies and Conformational Plasticity Drives Selectivity and Promiscuity in Quorum Quenching Lactonases” (JACS Au, 2024).

Legend:
[1] = biological target: T1, GcL (Parageobacillus caldoxylosilyticus, UniProt A0A023DFE8, A156S); assay: 4-nitrophenolate release at […] nm; assay type: biochemical; details: 50 mM HEPES pH 8.0 (methods; table note pH 8.3), 150 mM NaCl, CoCl2, 25 °C
T1 construct: gene GCA01S_030_00190; expressed in E. coli BL21(DE3)-pGro7/GroEL with CoCl2; bimetallic Fe/Co centre; dimer

[2] = substrate: CCCCCC(=O)N[C@H]1CCOC1=O; assay: purified protein; assay type: biochemical, Parageobacillus caldoxylosilyticus; details: pH 8.3, 25 °C, 2.5 mM bicine, 150 mM NaCl, 0.2 mM CoCl2
[3] = substrate: CCCC(=O)N[C@H]1CCOC1=O; assay: purified protein; assay type: biochemical, Parageobacillus caldoxylosilyticus; details: pH 8.3, 25 °C, 2.5 mM bicine, 150 mM NaCl, 0.2 mM CoCl2
[4] = substrate: CCCCCCCC(=O)N[C@H]1CCOC1=O; assay: purified protein; assay type: biochemical, Parageobacillus caldoxylosilyticus; details: pH 8.3, 25 °C, 2.5 mM bicine, 150 mM NaCl, 0.2 mM CoCl2

| Molecule | Km [1] | Km [2] | kcat [2] | kcat/Km [2] | Km [3] | kcat [3] | kcat/Km [3] | Km [4] | kcat [4] | kcat/Km [4] |
| --- | --- | --- | --- | --- | --- | --- | --- | --- | --- | --- |
| CCOP(=O)(OCC)Oc1ccc([N+](=O)[O-])cc1 [Paraoxon, paraoxon ethyl] | 964 ± 136 µM |  |  |  |  |  |  |  |  |  |
| GcL (Parageobacillus caldoxylosilyticus NBRC 107762; Y222F) (protein, expressed in E. coli BL21(DE3)-pGro7/GroEL with CoCl2; bimetallic Fe/Co centre; dimer) MANVIKARPKLYVMDNGRMRMDKNWMIAMHNPATIHNPNAQTEFVEFPIYTVLIDHPEGKILFDTSCNPNSMGPQGRWAESTQQMFPWTATEECYLHNRLEQLKVRPEDIRYVVASHLHLDHAGCLEMFTNATIIVHEDEFNGALQCYARNQKEGAYIWADIDAWIKNNLQWRTVKRHEDNILLAEGVKVLNFGSGHAWGMLGLHVELPETGGIILASDAIFTAESYGPPIKPPGIIYDSLGYMNTVERIRRIAQETKSQVWFGHDAEQFKKFRKSTEGYYE |  | 92.7 ± 36.7 µM | 5.01 ± 0.46 s⁻¹ | 54100 ± 21900 M⁻¹ s⁻¹ | 758 ± 275 µM | 0.79 ± 0.15 s⁻¹ | 1040 ± 430 M⁻¹ s⁻¹ |  |  |  |
| GcL (Parageobacillus caldoxylosilyticus NBRC 107762; A156S) (protein, expressed in E. coli BL21(DE3)-pGro7/GroEL with CoCl2; bimetallic Fe/Co centre; dimer) MANVIKARPKLYVMDNGRMRMDKNWMIAMHNPATIHNPNAQTEFVEFPIYTVLIDHPEGKILFDTSCNPNSMGPQGRWAESTQQMFPWTATEECYLHNRLEQLKVRPEDIRYVVASHLHLDHAGCLEMFTNATIIVHEDEFNGALQCYARNQKEGSYIWADIDAWIKNNLQWRTVKRHEDNILLAEGVKVLNFGSGHAWGMLGLHVELPETGGIILASDAIYTAESYGPPIKPPGIIYDSLGYMNTVERIRRIAQETKSQVWFGHDAEQFKKFRKSTEGYYE |  |  |  |  | 475 ± 103 µM | 24.9 ± 2.52 s⁻¹ | 52400 ± 12500 M⁻¹ s⁻¹ |  |  |  |
| GcL (Parageobacillus caldoxylosilyticus NBRC 107762; A156G) (protein, expressed in E. coli BL21(DE3)-pGro7/GroEL with CoCl2; bimetallic Fe/Co centre; dimer) MANVIKARPKLYVMDNGRMRMDKNWMIAMHNPATIHNPNAQTEFVEFPIYTVLIDHPEGKILFDTSCNPNSMGPQGRWAESTQQMFPWTATEECYLHNRLEQLKVRPEDIRYVVASHLHLDHAGCLEMFTNATIIVHEDEFNGALQCYARNQKEGGYIWADIDAWIKNNLQWRTVKRHEDNILLAEGVKVLNFGSGHAWGMLGLHVELPETGGIILASDAIYTAESYGPPIKPPGIIYDSLGYMNTVERIRRIAQETKSQVWFGHDAEQFKKFRKSTEGYYE |  |  |  |  |  |  |  | 19.34 ± 3.28 µM | 7.97 ± 0.33 s⁻¹ | 412000 ± 72000 M⁻¹ s⁻¹ |
| GcL (Parageobacillus caldoxylosilyticus NBRC 107762; D121N) (protein, expressed in E. coli BL21(DE3)-pGro7/GroEL with CoCl2; bimetallic Fe/Co centre; dimer) MANVIKARPKLYVMDNGRMRMDKNWMIAMHNPATIHNPNAQTEFVEFPIYTVLIDHPEGKILFDTSCNPNSMGPQGRWAESTQQMFPWTATEECYLHNRLEQLKVRPEDIRYVVASHLHLNHAGCLEMFTNATIIVHEDEFNGALQCYARNQKEGAYIWADIDAWIKNNLQWRTVKRHEDNILLAEGVKVLNFGSGHAWGMLGLHVELPETGGIILASDAIYTAESYGPPIKPPGIIYDSLGYMNTVERIRRIAQETKSQVWFGHDAEQFKKFRKSTEGYYE |  | 13.0 ± 6.16 µM | 2.6 ± 0.24 s⁻¹ | 200000 ± 96000 M⁻¹ s⁻¹ | 41.0 ± 9.14 µM | 1.74 ± 0.1 s⁻¹ | 42500 ± 9800 M⁻¹ s⁻¹ |  |  |  |
| GcL (Parageobacillus caldoxylosilyticus NBRC 107762; G155P) (protein, expressed in E. coli BL21(DE3)-pGro7/GroEL with CoCl2; bimetallic Fe/Co centre; dimer) MANVIKARPKLYVMDNGRMRMDKNWMIAMHNPATIHNPNAQTEFVEFPIYTVLIDHPEGKILFDTSCNPNSMGPQGRWAESTQQMFPWTATEECYLHNRLEQLKVRPEDIRYVVASHLHLDHAGCLEMFTNATIIVHEDEFNGALQCYARNQKEPAYIWADIDAWIKNNLQWRTVKRHEDNILLAEGVKVLNFGSGHAWGMLGLHVELPETGGIILASDAIYTAESYGPPIKPPGIIYDSLGYMNTVERIRRIAQETKSQVWFGHDAEQFKKFRKSTEGYYE |  | 563 ± 150 µM | 2.44 ± 0.31 s⁻¹ | 4340 ± 1280 M⁻¹ s⁻¹ |  |  |  | 8.22 ± 2.92 µM | 1.44 ± 0.09 s⁻¹ | 175000 ± 63000 M⁻¹ s⁻¹ |
| GcL (Parageobacillus caldoxylosilyticus NBRC 107762; I236M) (protein, expressed in E. coli BL21(DE3)-pGro7/GroEL with CoCl2; bimetallic Fe/Co centre; dimer) MANVIKARPKLYVMDNGRMRMDKNWMIAMHNPATIHNPNAQTEFVEFPIYTVLIDHPEGKILFDTSCNPNSMGPQGRWAESTQQMFPWTATEECYLHNRLEQLKVRPEDIRYVVASHLHLDHAGCLEMFTNATIIVHEDEFNGALQCYARNQKEGAYIWADIDAWIKNNLQWRTVKRHEDNILLAEGVKVLNFGSGHAWGMLGLHVELPETGGIILASDAIYTAESYGPPIKPPGMIYDSLGYMNTVERIRRIAQETKSQVWFGHDAEQFKKFRKSTEGYYE |  | 2.38 ± 0.68 µM | 0.95 ± 0.04 s⁻¹ | 399000 ± 115000 M⁻¹ s⁻¹ |  |  |  |  |  |  |
